Ends that are not written are not given here. Peptide text beside a SMILES is read from it.
Legend:
[1] = target: T1, human PTHR, G protein-uncoupled conformation (R^0) (Homo sapiens, UniProt Q03431); assay: Competition binding to R0 conformation of hPTHR (COS-7 membranes, GTPγS, 125I-PTH(1-34) tracer); settings: for R0:RG: Table 5, fold weaker affinity for R0 than RG; for screen human PIR R0 (% parent): parent PTHrP(1-28)NH
T1 construct: expressed in transfected cells; host or cells: COS-7, transient (Fugene-6)
T1 sequence (Q03431 27-593): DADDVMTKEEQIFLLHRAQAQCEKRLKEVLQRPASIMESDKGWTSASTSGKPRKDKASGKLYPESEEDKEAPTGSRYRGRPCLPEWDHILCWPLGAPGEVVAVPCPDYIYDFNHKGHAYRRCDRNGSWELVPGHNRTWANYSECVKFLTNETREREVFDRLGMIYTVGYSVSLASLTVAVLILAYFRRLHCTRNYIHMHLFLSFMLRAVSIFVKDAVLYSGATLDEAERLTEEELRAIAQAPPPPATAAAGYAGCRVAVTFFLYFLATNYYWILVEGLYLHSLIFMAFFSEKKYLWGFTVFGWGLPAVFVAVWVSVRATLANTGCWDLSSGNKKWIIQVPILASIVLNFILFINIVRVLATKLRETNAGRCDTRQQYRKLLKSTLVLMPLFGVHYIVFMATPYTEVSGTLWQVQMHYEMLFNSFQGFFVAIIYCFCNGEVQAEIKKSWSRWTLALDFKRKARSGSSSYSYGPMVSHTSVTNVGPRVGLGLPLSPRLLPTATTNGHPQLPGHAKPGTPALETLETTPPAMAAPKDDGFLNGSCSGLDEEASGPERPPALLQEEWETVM
Procedure: Membranes were prepared from COS-7 cells transfected with the hPTHR alone. GTPγS ([…]) was added to the binding reactions so as to functionally uncouple receptor-heterotrimeric G protein complexes, thus enriching for the R^0 (and R) conformations, relative to RG.
Reactions contained a total membrane protein concentration of 20 to 100 μg/mL, and a total radioactivity concentration of approximately 150,000 cpm/ml. Unlabeled peptide ligands and/or GTPγS (Sigma-Aldrich Inc. St. Louis, Mo.) were added to the reactions as indicated.
Membranes, tracer radioligand, and various concentrations of unlabeled ligands and/or GTPγS were incubated in the wells for 90 minutes, following which, the reaction plates were processed by rapid vacuum filtration to separate bound from free radioligand, as described above. […] For both radioligands, the non-specific binding was determined in reactions containing a saturating concentration of the unlabeled analog of the radioligand. The specifically bound radioactivity was calculated as a percent of the radioactivity specifically bound in the absence of a competing ligand or GTPγS.
To assess the capacities of various unlabeled peptide ligands to bind to the G protein-uncoupled and G protein-coupled PTHR conformations (R^0 and RG, respectively), membranes were prepared from transiently transfected COS-7 cells and the following assay conditions.

[2] = target: T2, human PTHR, G protein-coupled conformation (RG) (Homo sapiens, UniProt Q03431); assay: Competition binding to RG conformation of hPTHR (COS-7 membranes, GαsND, 125I-[Aib1,3,M]PTH(1-15) tracer); settings: parent PTHrP(1-28)NH
T2 construct: expressed in transfected cells; host or cells: COS-7, transient (Fugene-6); membranes
T2 sequence (Q03431 27-593): T1 sequence (Q03431 27-593)

[3] = system: LLCPK1-B64 cells or SaOS-2 cells; assay: cAMP screen of substituted PTHrP(1-28) analogs (% parent); format: cell-based; settings: parent PTHrP(1-28)NH
Procedure: Alanine substitution at position 18, 22, 25 and 26 increased activity in at least one cell type. These positions were further substituted to various types of amino acids, and cAMP activity was analyzed in LLCPK1-B64 cells (FIG. 27C) or SaOS-2 cells (FIG. 27D). Cells were treated with analogs at 3×10^−9M in the presence of IBMX for 30 minutes at room temperature. Responses for each analog were normalized to the response for the parent (native) PTHrP(1-28) peptide. Alanine substitutions were A^15 to A^17 (SEQ ID NO:152-154), A^18 (SEQ ID NO:34), A^19 to A^21 (SEQ ID NO:155-157), A^22 (SEQ ID NO:39), A^23 to A^25 (SEQ ID NO:158-160), A^26 (SEQ ID NO:46), and A^27 to A^28 (SEQ ID NO:161-162). Substitutions at position 18 were A^18 (SEQ ID NO: 34), G^18 (SEQ ID NO:163), S^18 (SEQ ID NO:35), M^18 (SEQ ID NO:36), L^18 (SEQ ID NO:164), F^18 (SEQ ID NO:37), N^18 (SEQ ID NO:165), E^18 (SEQ ID NO:38), and K^18 (SEQ ID NO:166). Substitutions at position 22 were A^22 (SEQ ID NO:39), G^22 (SEQ ID NO:167), and S^22 to K^22 (SEQ ID NO:40-45). Substitutions at position 26 were A^26 (SEQ ID NO:46), G^26 (SEQ ID NO:168), S^26 (SEQ ID NO:47), L^26 (SEQ ID NO:169), N^26 (SEQ ID NO:48), W^26 to E^26 (SEQ ID NO:170-171), and K^26 to R^26 (SEQ ID NO:49-50). Substitutions at position 25 were G^25 to S^25 (SEQ ID NO:172-173), L^25 (SEQ ID NO:51), N^25 (SEQ ID NO:174), W^25 (SEQ ID NO:52), E^25 (SEQ ID NO:175), and K^25 to R^25 (SEQ ID NO:53-54). […]

| Compound | R0:RG [1] | screen human PIR RG (% parent) [2] [% parent] | screen human PIR R0 (% parent) [1] [% parent] | screen cAMP (% parent) [3] [% parent] |
| --- | --- | --- | --- | --- |
| A18,22,26-PTHrP(1-28) (AVSEHQLLHDKGKSIQDARRRAFLHALI-NH2) [A18, 22, 26-PTHrP(1-28)NH] | – | 167 | 160 | 343 |
| A18,26,L22-PTHrP(1-28) (AVSEHQLLHDKGKSIQDARRRLFLHALI-NH2) [A18, 26, L22-PTHrP(1-28)NH] | – | 163 | 133 | 252 |
| A18,26,N22-PTHrP(1-28) (AVSEHQLLHDKGKSIQDARRRNFLHALI-NH2) [A18, 26, N22-PTHrP(1-28)NH] | – | 161 | 136 | 265 |
| A18,26,S22-PTHrP(1-28) (AVSEHQLLHDKGKSIQDARRRSFLHALI-NH2) [A18, 26, S22-PTHrP(1-28)NH] | – | 148 | 133 | 229 |
| A18,26,W22-PTHrP(1-28) (AVSEHQLLHDKGKSIQDARRRWFLHALI-NH2) [A18, 26, W22-PTHrP(1-28)NH] | – | 120 | 126 | 188 |
| A18,L22,K26-PTHrP(1-28) (AVSEHQLLHDKGKSIQDARRRLFLHKLI-NH2) [A18, L22, K26-PTHrP(1-28)NH] | – | 177 | 160 | 350 |
| A18,N22,K26-PTHrP(1-28) (AVSEHQLLHDKGKSIQDARRRNFLHKLI-NH2) [A18, N22, K26-PTHrP(1-28)NH] | – | 172 | 139 | 326 |

Second part, led by results:

| R0:RG [1] | screen human PIR RG (% parent) [2] [% parent] | screen human PIR R0 (% parent) [1] [% parent] | Compound | screen cAMP (% parent) [3] [% parent] |
| --- | --- | --- | --- | --- |
| 160 | – | – | CSCC[C@H](NC(=O)[C@H](CC(C)C)NC(=O)[C@H](CCC(N)=O)NC(=O)[C@H](Cc1c[nH]cn1)NC(=O)[C@H](CCC(=O)O)NC(=O)[C@H](CO)NC(=O)[C@@H](NC(=O)[C@@H](N)CO)C(C)C)C(=O)N[C@@H](Cc1c[nH]cn1)C(=O)N[C@@H](CC(N)=O)C(=O)N[C@@H](CC(C)C)C(=O)NCC(=O)N[C@@H](CCCCN)C(=O)N[C@@H](Cc1c[nH]cn1)C(=O)N[C@@H](CC(C)C)C(=O)N[C@@H](CC(N)=O)C(=O)N[C@@H](CO)C(=O)N[C@@H](CCSC)C(=O)N[C@@H](CCC(=O)O)C(=O)N[C@@H](CCCNC(=N)N)C(=O)N[C@H](C(=O)N[C@@H](CCC(=O)O)C(=O)N[C@@H](Cc1c[nH]c2ccccc12)C(=O)N[C@@H](CC(C)C)C(=O)N[C@@H](CCCNC(=N)N)C(=O)N[C@@H](CCCCN)C(=O)N[C@@H](CCCCN)C(=O)N[C@@H](CC(C)C)C(=O)N[C@@H](CCC(N)=O)C(=O)N[C@@H](CC(=O)O)C(=O)N[C@H](C(=O)N[C@@H](Cc1c[nH]cn1)C(=O)N[C@@H](CC(N)=O)C(=O)N[C@@H](Cc1ccccc1)C(N)=O)C(C)C)C(C)C [[His^5]hPTH(1-34)NH2] (H-SVSEHQLMHNLGKHLNSMERVEWLRKKLQDVHNF-NH2; N-terminus assumed) | – |
| 138 | – | – | CSCC[C@H](NC(=O)[C@H](CC(C)C)NC(=O)[C@H](CCC(N)=O)NC(=O)[C@H](Cc1c[nH]cn1)NC(=O)[C@H](CCC(=O)O)NC(=O)[C@H](CO)NC(=O)[C@@H](NC(=O)[C@H](C)N)C(C)C)C(=O)N[C@@H](Cc1c[nH]cn1)C(=O)N[C@@H](CC(N)=O)C(=O)N[C@@H](CC(C)C)C(=O)NCC(=O)N[C@@H](CCCCN)C(=O)N[C@@H](Cc1c[nH]cn1)C(=O)N[C@@H](CC(C)C)C(=O)N[C@@H](C)C(=O)N[C@@H](CO)C(=O)N[C@H](C(=O)N[C@@H](CCC(=O)O)C(=O)N[C@@H](CCCNC(=N)N)C(=O)N[C@@H](CCSC)C(=O)N[C@@H](CCC(N)=O)C(=O)N[C@@H](Cc1c[nH]c2ccccc12)C(=O)N[C@@H](CC(C)C)C(=O)N[C@@H](CCCNC(=N)N)C(=O)N[C@@H](CCCCN)C(=O)N[C@@H](CCCCN)C(=O)N[C@@H](CC(C)C)C(=O)N[C@@H](CCC(N)=O)C(=O)N[C@@H](CC(=O)O)C(=O)N[C@H](C(=O)N[C@@H](Cc1c[nH]cn1)C(=O)N[C@@H](CC(N)=O)C(=O)N[C@@H](Cc1ccccc1)C(N)=O)C(C)C)C(C)C [[His^5]rPTH(1-34)NH2] (H-AVSEHQLMHNLGKHLASVERMQWLRKKLQDVHNF-NH2; N-terminus assumed) | – |
| 7 | – | – | CC[C@H](C)[C@H](NC(=O)[C@H](CCC(=O)O)NC(=O)[C@H](CO)NC(=O)[C@@H](NC(=O)[C@H](C)N)C(C)C)C(=O)N[C@@H](CCC(N)=O)C(=O)N[C@@H](CC(C)C)C(=O)N[C@@H](CCSC)C(=O)N[C@@H](Cc1c[nH]cn1)C(=O)N[C@@H](CC(N)=O)C(=O)N[C@@H](CC(C)C)C(=O)NCC(=O)N[C@@H](CCCCN)C(=O)N[C@@H](Cc1c[nH]cn1)C(=O)N[C@@H](CC(C)C)C(=O)N[C@@H](C)C(=O)N[C@@H](CO)C(=O)N[C@H](C(=O)N[C@@H](CCC(=O)O)C(=O)N[C@@H](CCCNC(=N)N)C(=O)N[C@@H](CCSC)C(=O)N[C@@H](CCC(N)=O)C(=O)N[C@@H](Cc1c[nH]c2ccccc12)C(=O)N[C@@H](CC(C)C)C(=O)N[C@@H](CCCNC(=N)N)C(=O)N[C@@H](CCCCN)C(=O)N[C@@H](CCCCN)C(=O)N[C@@H](CC(C)C)C(=O)N[C@@H](CCC(N)=O)C(=O)N[C@@H](CC(=O)O)C(=O)N[C@H](C(=O)N[C@@H](Cc1c[nH]cn1)C(=O)N[C@@H](CC(N)=O)C(=O)N[C@@H](Cc1ccccc1)C(N)=O)C(C)C)C(C)C [rPTH(1-34)NH2, reference compound] | – |
| – | 115 | 136 | A18,W22,K26-PTHrP(1-28) (AVSEHQLLHDKGKSIQDARRRWFLHKLI-NH2) [A18, W22, K26-PTHrP(1-28)NH] | 267 |
| – | 208 | 119.8 | E18,K22,26-PTHrP(1-28) (AVSEHQLLHDKGKSIQDERRRKFLHKLI-NH2) [E18, K22, 26-PTHrP(1-28)NH] | 374 |
| – | 192 | 106.1 | E18,K22,A26-PTHrP(1-28) (AVSEHQLLHDKGKSIQDERRRKFLHALI-NH2) [E18, K22, A26-PTHrP(1-28)NH] | 315 |
| – | 125 | 52.5 | E18,L22,A26-PTHrP(1-28) (AVSEHQLLHDKGKSIQDERRRLFLHALI-NH2) [E18, L22, A26-PTHrP(1-28)NH] | 139 |

From US9057727B2, “Screening methods using G-protein coupled receptors and related compositions” (The General Hospital Corporation, priority 2007, dated 2015)
